Patent publication US7063845 (KIRIN BEER, dated 2006)

Biological target: T1, human CD40 on the cell surface (EL-4 cells transfected with full length human CD40 cDNA); Ramos B cells; human … (human, UniProt P25942 21-277)
T1 construct: whole, on cells; Ramos and peripheral B cells carry their own CD40; also called cell surface human CD40
Assay: FACS on EL-4 cells expressing human CD40

T1 sequence (P25942 21-277): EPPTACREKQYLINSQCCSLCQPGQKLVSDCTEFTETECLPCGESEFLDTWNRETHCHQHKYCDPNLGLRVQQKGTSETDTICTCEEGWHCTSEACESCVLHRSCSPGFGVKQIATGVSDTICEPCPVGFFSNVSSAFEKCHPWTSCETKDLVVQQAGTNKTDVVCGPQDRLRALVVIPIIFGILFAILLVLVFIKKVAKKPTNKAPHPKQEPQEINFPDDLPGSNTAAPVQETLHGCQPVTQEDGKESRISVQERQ

B1: recombinant human anti-CD40 antibody F5-77 (antibody, V domains shown)
VH: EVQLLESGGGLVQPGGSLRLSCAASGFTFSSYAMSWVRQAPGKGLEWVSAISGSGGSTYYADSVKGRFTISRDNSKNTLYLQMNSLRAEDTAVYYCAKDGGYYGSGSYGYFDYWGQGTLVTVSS
VL: DIQMTQSPSSVSGSVGDRVTITCRASQGISSWLAWYQQKPGKAPKLLIYAGSSLQSGVPSRFSGSGFGTDFTLTISSLQPEDFATYYCQQASSFPRTFGQGTKVEIK
notes: also called F5-77 (K1H1); printed F5-17 in claim 19
binding result: binds
